Data on 1 molecule can be found in paper PMC7248865, “Ultrasensitive and Highly Selective Graphene-Based Field-Effect Transistor Biosensor for Anti-Diuretic Hormone Detection”.

The data set has as its target T1, anti-diuretic hormone (ADH, arginine-vasopressin) (UniProt P01185 20-28).
T1 chain: CYFQNCPRG
In words: graphene FET (drain current); 10 ag/mL to 1 pg/mL ADH in PBS; ID 116.26 to 338.64 uA at VG 8 V; sensor LOD 3.55 ag/mL; PBS (or human serum), 10 min incubation per concentration, PBS washes; pH and temperature not stated.

B1: ADH-specific aptamer (ssDNA)
DNA: TCACGTGCATGATAGACGGCGAAGCCGTCGAGTTGCTGTGTGCCGATGCACGTGA
modifications: 5'-amine
B1: the binding result is “binds”.
